Source: patent publication US20200002403A1 (UNIVERSITY COURT OF THE UNIVERSITY OF ABERDEEN, published 2020)
Positions count from the first letter of the chain named.

Molecular target: T1, mouse ICOSL (mouse, UniProt Q9JHJ8 47-279, limits assumed)
T1 construct: Target of ELSS1 panning; also called mICOSL
T1 sequence (looked up): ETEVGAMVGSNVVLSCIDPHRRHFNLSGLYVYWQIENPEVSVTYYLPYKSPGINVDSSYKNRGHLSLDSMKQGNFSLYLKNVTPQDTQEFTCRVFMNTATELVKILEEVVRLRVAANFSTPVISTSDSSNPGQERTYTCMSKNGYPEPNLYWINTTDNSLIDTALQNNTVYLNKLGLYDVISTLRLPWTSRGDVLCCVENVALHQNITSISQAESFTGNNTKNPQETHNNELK
Test: lead clones against targets used to screen ELSS1; alignment legend

B1: SEQ ID NO 44 (VNAR)
VNAR: TRVDQTPRTATKETGESLTINCVLTDTSYGWFSTSWFRKNPGTTDWERMSIGGRYVESVNKGAKSFSLRIKDLTVADSATYICRAQAAIPDFPRYVYGAGTVLTVN
notes: VNAR
B1: binds.

B2: SEQ ID NO 43 (VNAR)
VNAR: TRVDQTPRTATKETGESLTINCVLTDTRYALYSTSWFRKNPGTTDWERMSIGGRYVESVNKGAKSFSLRIKDLTVADSATYICRANEMMPPMDVYGAGTVLTVN
notes: VNAR
B2: binds.

B3: SEQ ID NO 42 (VNAR)
VNAR: TRVDQTPRTATKETGESLTINCVLTDTEYGLFSTSWFRKNPGTTDWERMSIGGRYVESVNKGAKSFSLRIKDLTVADSATYYCKALGWWPPAFPHWYDGAGTVLTVN
notes: VNAR
B3: binds.

B4: SEQ ID NO 45 (VNAR)
VNAR: B3 VNAR with E28G, W89I, A92E
notes: VNAR
B4: binds.

B5: SEQ ID NO 41 (VNAR)
VNAR: ASVNQTPRTATKETGESLTINCVLTDTGYGWFATSWFRKNPGTTDWERMSIGGRYVESVNKGAKSFSLRIKDLTVADSATYICRADMWPKNTKYSPDVYGAGTVLTVN
notes: VNAR
B5: binds.
